The target of this assay is PepT2^ECD-S427C, labelled for MST (Rattus norvegicus) (UniProt Q63424). Nature of the assay: MST; 1.5 μM labelled ECD (S437C or S427C, blue maleimide) with 0.03–1,000 μM ligand; 22°C; 25 mM MES pH 6.5, 100 mM NaCl.

One substance from PMC4597091 can be followed below.

pKd: −log10 of the molar value.

By pKd is commonly meant the negative decadic logarithm of the Kd, by convention in mol/L. trypsin (intestinal protease) (enzyme) gave a pKd of 5.22.
